From PMC4006906 (2014) come the findings set out here.

Where a chain is given by its changes, count along the chain named. Names and notes keep the numbering of the source.

First the molecules themselves.
B1: F10 scFv (wild type) (scFv, V domains shown)
VH: QVQLVQSGAEVKKPGSSVKVSCTSSEVTFSSFAISWVRQAPGQGLEWLGGISPMFGTPNYAQKFQGRVTITADQSTRTAYMDLRSLRSEDTAVYYCARSPSYICSGGTCVFDHWGQGTLVTVSS
VL: QPGLTQPPSVSKGLRQTATLTCTGNSNNVGNQGAAWLQQHQGHPPKLLSYRNNDRPSGISERFSASRSGNTASLTITGLQPEDEADYYCSTWDSSLSAVVFGGGTKLTVL
B2: F10 Y98A scFv (scFv, V domains shown)
VH: B1 VH with Y102A
VL: B1 VL
B3: CR6261 Y98A scFv (scFv, V domains shown)
VH: EVQLVESGAEVKKPGSSVKVSCKASGGPFRSYAISWVRQAPGQGPEWMGGIIPIFGTTKYAPKFQGRVTITADDFAGTVYMELSSLRSEDTAMYYCAKHMGAQVRETMDVWGKGTTVTVSS
VL: QSVLTQPPSVSAAPGQKVTISCSGSSSNIGNDYVSWYQQLPGTAPKLLIYDNNKRPSGIPDRFSGSKSGTSATLGITGLQTGDEANYYCATWDRRPTAYVVFGGGTKLTVL
B4: CR6261 scFv (wild type) (scFv, V domains shown)
VH: B3 VH with A102Y
VL: B3 VL
B5: CR6261 F54A scFv (scFv, V domains shown)
VH: B3 VH with F55A, A102Y
VL: B3 VL
B6: F10 CDR-H2 variant ISPIFGTA (germline CDR-H2 with Ser52 restored) scFv (scFv, V domains shown)
VH: B1 VH with M54I, P58A
VL: B1 VL
B7: A66 germline CDR-H2 variant (IIPIFGTA) scFv (scFv, V domains shown)
VH: QVQLVQSGAEVKKPGSSVKVSCKASGGPFSMTAFTWLRQAPGQGLEWMGGIIPIFGTAKYAQKFQGRVTITADESTNTANMELTSLKSEDTAVYYCARTLSSYQPNNDAFAIWGQGTMVTVSS
VL: EIVLTQSPATLSLSPGERATLSCRASQSVSSYLAWYQQKPGQAPRLLIYDASNRATGIPARFSGSGSGTDFTLTISRLEPEDFAVYFCQQYGSSPQFGQGTRLEIK
B8: A66 scFv (wild type) (scFv, V domains shown)
VH: B7 VH with I52S, G56R, A58P
VL: B7 VL
B9: A66 CDR-H2 variant IIPIFRTA (germline CDR-H2 with Arg55 restored) scFv (scFv, V domains shown)
VH: B7 VH with G56R
VL: B7 VL
B10: A66 CDR-H2 variant ISPIFGTA (germline CDR-H2 with Ser52 restored) scFv (scFv, V domains shown)
VH: B7 VH with I52S
VL: B7 VL
B11: F10 CDR-H2 variant IIPMFGTA (germline CDR-H2 with Met53 restored) scFv (scFv, V domains shown)
VH: B1 VH with S52I, P58A
VL: B1 VL

The target in one assay is T1, H5VN04 trimeric HA (recombinant hemagglutinin) (influenza A virus (H5VN04), UniProt Q6DQ33). Briefly: SPR.
For the molecule B1, the koff stood at 3.5e-05 s⁻¹.

Turning to B2, the off-rate constant (koff) amounted to 0.097 s⁻¹.

As for B3, the koff was 0.027 s⁻¹.

For B4, the koff was determined as 0.00012 s⁻¹.

For the molecule B5, the koff was found to be 0.0073 s⁻¹.

A further assay deals with T1, H5VN04 trimeric HA (recombinant …). Briefly: SPR. The source holds these as a separate data set.
For B1, the dissociation constant Kd was 0.1 nM.

In the case of B2, the Kd stood at 350 nM.

For B3, the dissociation constant Kd came out at 1600 nM.

Turning to B4, the dissociation constant (Kd) stood at 0.34 nM.

In the case of B5, the Kd was found to be 290 nM.

The target is the same in another assay. Briefly: SPR. The source holds these as a separate data set.
With B6, the off-rate constant (koff) was 0.00025 s⁻¹.

Take B7: the koff is 0.0049 s⁻¹.

As for B8, the koff is 5e-05 s⁻¹.

Regarding B9, the off-rate (koff) worked out at 0.0034 s⁻¹.

With B10, the off-rate (koff) was 0.00023 s⁻¹.

The target is the same in the next assay. Briefly: SPR. The source holds these as a separate data set.
In the case of B6, the Kd worked out at 1.2 nM.

In the case of B11, the dissociation constant (Kd) worked out at 270 nM.

As for B7, the Kd is 4.2 nM.

For B8, the dissociation constant (Kd) was determined as 0.11 nM.

In the case of B9, the dissociation constant (Kd) was 3.2 nM.

With B10, the Kd stood at 1.1 nM.
